Residue numbers refer to the chain shown, from its start.
B1: VG9B191 (antibody, human IgG1, lambda, V domains shown)
VH: EVQLVQSGGGLVKPGGSLRLSCAASGFTFSRYSMNWVRQAPGKGLEGVSSISSSSSYIYYADSVKGRFTISRDNAKNSLYLQMNSLRAEDTAVYYCARDGPTVNWDYYFDLWGRGTLVTVSS
VL: QSVLTQPPSVSAAPGQKVTISCSGSSSNIGNNYVSWYQQLPGTAPKLLIYDNNKRPSGIPDRFSGSKSGTSATLGITGLQTGDEADYYCGTWDSSLSTSVVFGGGTKLTVLG
B2: VG9B44 (antibody, human IgG1, kappa, V domains shown)
VH: QVQLQQSGPGLVKPSQTLSLTCAISGDSVSSNSAAWNWIRQSPSRGLEWLGRTYYRSKWYNDYPISVKSRISINPDTSKNQFSLQLNSVTPEDTAVYYCARESGSYYTDGFDIWGQGTMVTVSS
VL: DIQMTQSPSFLSASVGDRVTITCRASQGISSYLAWYQQKPGKAPKLLIYAASTLQSGVPSRFSGSGSGTEFTLTISSLQPEDFATYYCQEFNSYPYTFGQGTKLEIKR
B3: VG9B67 (antibody, human IgG1, kappa, V domains shown)
VH: EVQLVESGGGLVKPGGSLRLSCAASGFTFSSYTMNWVRQAPGKGLEWVSSISSSSSYIDYAESVKGRFTISRDNAKNSLYLQMNSLRAEDTAVYYCARDGDILATIRGSFDYWGQGTTVTVSS
VL: DIVMTQTPLSLPVTPGEPASISCRSSQSLLDSDAGNTYLDWYLQKPGQSPQLLIYTLSYRASGVPDRFSGSGSGTDFTLKISRVEAEDVAIYYCMQRIEFPITFGQGTKVEIKR
B4: VG9B127 (antibody, human IgG1, kappa, V domains shown)
VH: B3 VH with E1Q, A23T, S30G, S31A, Y60F, N84I, L103V, A104S, T117A, T118L
VL: B3 VL with D1E, T7S, A34D, A90G
B5: VG9B33 (antibody, human IgG1, kappa, V domains shown)
VH: EVQLVESGGGLVKPGGSLRLSCAASGFTFSSYNMNWVRQAPGKGLEWVSSISTSSSYIYYADSVKGRFTISRDNAKNSLYLQMNGLRAEDTAVYYCARDTSVTKYPDTFDIWGQGTMVTVSS
VL: DIVMTQSPSSLSASVGDRVTITCRASQDINNYLAWFQQKPGKVPNLLIYGASTLQSGVPSRFTGSGSGTDFTLTISSLQPEDVATYYCQKYNSAPFTFGPGTKVDIKR
B6: VG9B162 (antibody, human IgG1, lambda, V domains shown)
VH: QVQLVESGAEVTKPGASVKVSCKASGYTFTGDYMHWVRQAPGQGLEWMGWINPNSGYTNYAQKFQGRVTMTRDTSISTAYMELSRLRSDDTAVYYCAREGDAFDVWGQGTMVTVSS
VL: QLVLTQSSSASGSPGQSVTISCTGTSSDVGGYNYVSWYQQHPGKAPKLMIYEVSKRPSGVPDRFSGSKSGNTASLTVSGLQAEDEADYYCNSYAGSNNFEVFGGGTKLTVLG
B7: VG9B152 (antibody, human IgG1, lambda, V domains shown)
VH: EVQLVESGGGLVRPGGSLRLSCEASGFTFSSYSMIWVRQAPGKGLEWVSSISSSSDYIYNADSVKGRFTISRDNAKNSLYLQMNSLRAEDTAVYYCARDWELLGFDCWGQGTTVTVSS
VL: SYELMQPPSVSVSPGQTASITCSGDKLGDKYACWYQQKPGQSPVLVIYQHNKRPSGIPERFSGSNSGKTATLTISGTQAMDEADYYCQAWDSTTVVFGGGTKLTVLG
B8: VG9B21 (antibody, human IgG1, kappa, V domains shown)
VH: EVQLLESGGGLVKPGGSLRLSCAASGFSFSNYDMNWVRQAPRKGLEWVSSISSSSHYIYYADSLKGRFTISRDNAKNSLFLQMNSLRAEDTAVYYCARDRGVTTDYYYYALDVWGQGTMVTVSS
VL: DIVMTQSPSSLSASVGDRVTITCRASQGIYNYLAWYQQKPGNVPKLLIYAASTLQSGVPSRFSGSGSGTDFSLTISSLQPEDFTTYYCQKYNRAPFTFGPGTKVDIKR
B9: VG9B66 (antibody, human IgG1, kappa, V domains shown)
VH: B3 VH with S31T, S56F, I58M, E62D, Y80S, Q82L, L103V, T118M
VL: EIVLTQSPSSLSTSVGDRVTITCRASQDITNFLAWYQQKPGKLPKLLIYTASTLQSGVPSRFSGSASGPDFTLTISSLQPEDVATYYCQKYNSAPFTFGPGTKVEIKR
B10: VG9B57 (antibody, human IgG1, kappa, V domains shown)
VH: EVQLVESGGGLVKPGGSLRLSCAASGFTFSSHDMNWVRQAPGKGLGWVSSISSSSSYIFYADSVKGRFTISRDNAKNSLYLQMSSLRAEDTAVYYCARDLGVGVRDYYYYGMDVWGQGTMVTVSS
VL: DIQMTQSPSAMSASVGDRVTITCRASQDITNYLAWFQQKPGKVPKRLIYAASSLQGGVPSRFSGSGSGTEFTLTISSLQPEDFSTYYCLQHDTYPYTFGQGTKLEIKR
B11: VG9B60 (antibody, human IgG1, kappa, V domains shown)
VH: QVQLVQSGAEVKKPGASVKVSCKASGYTFTGYYMHWVRQAPGQGLEWMGRINPNSGVTHYAQKFQGRVTMTRDTSISTAYMELSRLRSDDTAVYYCARGGSLVRGVISGLDYWGQGTTVTVSS
VL: DIVMTQSPGTLSLSPGERATLSCRASQSFSGSYLAWYQQKPGQAPSLLIYGASSRATGIPDRFSGSGSGTDFTLTISRLEPEDFALYYCQQYGSSPPYTFGQGTKVEIKR
B12: VG9B409 (antibody, human IgG1, kappa, V domains shown)
VH: EVQLVESGAEVKKPGASVKVSCKASGYTLTSYYMHWVRQAPGQGLEWMGIINPSGGSTSYAQKFQGRVTMTRDTSTSTVYMELSSLRSEDTAVYYCARGSYGWYFDLWGRGTLVTVSS
VL: EIVLTQSPGTLSLSPGERATLSCRASQSVTSSYLAWYQQKPGQTPRLLIYGASSRATGIPDRISGSGSGTDFTLTVSRLEPEDFAVYYCQQYGSSPPYTFGQGTKLEIKR
B13: VG9B189 (antibody, human IgG1, lambda, V domains shown)
VH: EVQLVQSGGGLVKPGASLKLSCAASGFTFSNHGMSWVRQTSDKRLEWVASITRGGDTTYYPDNVKGRFTISRENAKNTLYLQMSSLKSDDTALYYCTRGPLTVGYAMDYWGQGTTVTVSS
VL: B6 VL with L2S, L4V, S7P, S8P, L108V
B14: VG9B41 (antibody, human IgG1, kappa, V domains shown)
VH: QVQLQESGPQLVRPGASVKISCKASGYSFTTYWMHWVKQRPGQGLEWIGLIDPSDSETRLNQKFKDKATLTVDKSSSTAYMRLSSPTSEDSAVYYCASNRWLLGWGQGTMVTVSS
VL: EIVLTQTPLSSPVTLGQPASISCRSSQSLVHSDGNTYLSWLHQRPGQPPRLLIYKISNRFSGVPDRFSGSGAGTDFTLKISRVETEDVGVYYCVQTREFPLTFGGGTKVEIKR
B15: VG9B136 (antibody, human IgG1, kappa, V domains shown)
VH: QVQLQQSGPGLVKPSQTLSLTCAISGDSVSSNRAAWNWIRQSPSKGLEWLGRTYYRSKWYNEYAASVKSRMSINPDTSKNQFSLQLNSVTPEDTALYYCARDLWELREACDIWGQGTMVTVSS
VL: DIVMTQSPSFLSTFVGDRVTITCRASQGISSYLAWYQQKPGKVPKLLIYVASTLQSGVPSRFSGSGSGTEFTLTISSLQPEDFATYYCQQLNSYPFTFGPGTKVDIKR
B16: VG9B144 (antibody, human IgG1, lambda, V domains shown)
VH: B6 VH with E6Q, T12K, D32Y, V37M, Y57A, Y60K, A61E, G100D
VL: SSELTQDPAVSVALGQTVRITCQGDNLRNYYATWFQQKPGQAPVLVFFGKNNRPSGIPDRFSGSSSGDTASLTITGAQAEDEADYYCNSRDSSGNHVVFGGGTKLTVLG
B17: VG9B386 (antibody, human IgG1, kappa, V domains shown)
VH: EVQLVESGGGLVKPGGSLRLSCAASGFTFSSYSMIWVRQAPGKGLEWVSSIGSSSTYIYYADSVRGRFTISRDNAKTSLYLQMNSLRAEDTAMYFCARDGETGGFDYWGQGILVTVSS
VL: EIVMTQSPGTLSLSPGERATLSCRASQSISRSYLAWYQQKPGQPPRLLIYGPSNRATGIPDRFSASGSGTDFTLTNSRLEPEDFAVYYCQQYGSLPLTFGGGTKVEIKR
B18: VG9B112 (antibody, human IgG1, kappa, V domains shown)
VH: QVQLQQSGPGLVKPSQTLSLTCAISGDSVSSNSAAWNWIRQSPSRGLEWLGGTYYRSKWFNNYAVSVKSRITINPDTSTNQFSLQLNSVTPADTAVYYCARGEWGLRDAFDIWGQGTMVTVSS
VL: B2 VL with T20I, S30H, A43V, A50V, E90Q, F91L, Y96W

What was measured:
[1] = molecular target: Vg5/Vd2 TCR on SKW3 cells (UniProt A0JD36); assay: flow cytometry, dose-response binding at 37° C. on SKW3 cells expressing Vg5/Vd2
Chain of Vg5/Vd2 TCR on SKW3 cells (A0JD36 20-115): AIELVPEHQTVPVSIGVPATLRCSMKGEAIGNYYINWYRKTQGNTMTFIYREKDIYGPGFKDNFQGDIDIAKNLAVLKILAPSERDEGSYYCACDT

[2] = molecular target: Vg9/Vd1 TCR on SKW3 cells (UniProt Q99603); assay: flow cytometry, dose-response binding at 37° C. on SKW3 cells expressing Vg9/Vd1
Chain of Vg9/Vd1 TCR on SKW3 cells (Q99603 21-122): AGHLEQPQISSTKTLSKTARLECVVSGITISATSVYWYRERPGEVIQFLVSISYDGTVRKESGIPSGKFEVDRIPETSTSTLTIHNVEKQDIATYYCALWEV

[3] = molecular target: Vg9/Vd2 TCR on SKW3_4 cells (UniProt Q99603); assay: flow cytometry, dose-response binding at 37° C. on SKW3_4 cells expressing Vg9/Vd2
Chain of Vg9/Vd2 TCR on SKW3_4 cells (Q99603 21-122, chain 1 of 2): as the sequence (Q99603 21-122) above
Chain of Vg9/Vd2 TCR on SKW3_4 cells (A0JD36 20-115, chain 2 of 2, further chain): as the sequence (A0JD36 20-115) above

[4] = molecular target: Vg9/Vd1 TCR on SKW3 cells (UniProt Q99603); assay: flow cytometry DRC binding 37 C, SKW3 cells expressing Vg9/Vd1
[5] = molecular target: Vg5/Vd2 TCR on SKW3 cells (UniProt A0JD36); assay: flow cytometry DRC binding 37 C, SKW3 cells expressing Vg5/Vd2
[6] = molecular target: Vg9/Vd2 TCR on SKW3_4 cells (UniProt Q99603); assay: flow cytometry DRC binding 37 C, SKW3_4 cells expressing Vg9/Vd2

Binder	Max. Activity (fold over background) [1]	Max. Activity (fold over background) [2]	Max. Activity (fold over background) [3]	Max. Activity (fold over background) [4]	Max. Activity (fold over background) [5]	Max. Activity (fold over background) [6]
B1	17.2	381	156	–	–	–
B2	2.13	375	170	–	–	–
B3	1.14	318	128	–	–	–
B4	1.78	318	91.9	–	–	–
B5	2.85	377	173	–	–	–
B6	2.44	249	96.3	–	–	–
B7	1.64	352	141	–	–	–
B8	1.86	121	39.7	–	–	–
B9	1.04	179	33.9	–	–	–
B10	1.04	75.9	30.8	–	–	–
B11	1.42	40.6	16.7	–	–	–
B12	8.45	408	176	–	–	–
B13	–	–	–	1.46	21.5	46.1
B14	–	–	–	2.18	16.1	11.4
B15	–	–	–	288	226	181
B16	–	–	–	205	194	123
B17	–	–	–	389	92.7	211
B18	–	–	–	328	217	227

From patent publication US20220125947A1
